These results are taken from patent US20250026829A1 (published 2025).

Where no end group is shown, it is not given here.

Assay [1] deals with … (SEQ ID NO: 1) HLA-A*24 complex, reduced form of the peptide (human). The assay is described as follows: SPR, soluble TCR over immobilised biotinylated pHLA, equilibrium, 25 C. (In general: In SPR one partner is held on a chip, and binding of the other changes the refractive index at the surface.)
For assay [2], the target named is T1, PRAME peptide on HLA-A*24:02 (human).
T1 peptide: PYLGQMINL
The assay can be described thus: SPR, equilibrium, 25 C; reduced peptide; soluble, with an engineered disulfide between the constant domains.

Assay [3] concerns the target … (SEQ ID NO: 1) HLA-A*24 complex, oxidised form of the peptide (human). The assay is described as follows: SPR, soluble TCR over immobilised biotinylated pHLA, equilibrium, 25 C.
In assay [4] the target is T2, PRAME peptide on HLA-A*24:02 (human, not fully specified (residue 6)).
T2 peptide: PYLGQMINL
The assay can be described thus: SPR, equilibrium, 25 C; oxidised peptide; soluble, with an engineered disulfide between the constant domains.

B1: S1 (TCR)
alpha TRAV24 CDR3: AFISWRSSGDKLT
beta TRBV25 CDR3: ASSSPLSGPLASPLH
As for B1, the Kd in assay [1] and in assay [2] was 85 µM in each case.

B2: S4 (TCR)
alpha TRAV12-2 CDR3: AVNGPNNAGNMLT
beta TRBV6-2/3 CDR3: ASSPGGFGQPQH
For B2, the Kd in assay [1] and in assay [2] was 18.9 µM in each case.

B3: S6 (TCR)
alpha TRAV21 CDR3: AVPNPSARQLT
beta TRBV7-9 CDR3: ASSLEGQGVEQF
Regarding B3, the equilibrium dissociation constant (Kd) in assay [3] was determined as 241 µM; in assay [1], 126 µM; in assay [2], 126 µM; in assay [4], 241 µM.

B4: S5 (TCR)
alpha TRAV12-2 CDR3: AVNKGFQKLV
beta TRBV6-1 CDR3: ASSEGWGGQPQH
Take B4: the Kd in assay [1] and in assay [2] was 14.5 µM each time.

B5: S10 (TCR)
alpha TRAV27 CDR3: GAIWSTLGRLY
beta TRBV5-6 CDR3: SSFKGVNQPQH
For B5, the Kd in assay [3] came to 193 µM; in assay [1] it was 53 µM; in assay [2], 53 µM; in assay [4], 193 µM.

One may read the Kd as a measure of binding affinity in units of concentration. High values mean a looser complex, low ones a tighter complex.
